From patent US20110158992A1 (SCHERING, published 2011)

T1: human IL-23R (human, UniProt Q5VWK5 24-353, limits assumed)
T1 construct: also called huIL-23R; human interleukin-23R
T1 sequence: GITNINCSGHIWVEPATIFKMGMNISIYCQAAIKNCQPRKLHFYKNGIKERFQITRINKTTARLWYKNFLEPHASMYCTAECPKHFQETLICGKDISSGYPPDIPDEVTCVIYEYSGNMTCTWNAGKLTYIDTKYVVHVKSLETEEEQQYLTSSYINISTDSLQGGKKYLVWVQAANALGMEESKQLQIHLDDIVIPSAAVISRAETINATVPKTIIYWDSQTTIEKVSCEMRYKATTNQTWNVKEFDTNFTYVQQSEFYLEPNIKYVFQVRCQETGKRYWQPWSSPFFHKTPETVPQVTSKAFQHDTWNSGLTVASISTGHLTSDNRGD

T2: biotinylated huIL-23R-IgG (human, UniProt Q5VWK5 24-353, biotinylated)
T2 construct: not shown: human IgG1 Fc
T2 sequence: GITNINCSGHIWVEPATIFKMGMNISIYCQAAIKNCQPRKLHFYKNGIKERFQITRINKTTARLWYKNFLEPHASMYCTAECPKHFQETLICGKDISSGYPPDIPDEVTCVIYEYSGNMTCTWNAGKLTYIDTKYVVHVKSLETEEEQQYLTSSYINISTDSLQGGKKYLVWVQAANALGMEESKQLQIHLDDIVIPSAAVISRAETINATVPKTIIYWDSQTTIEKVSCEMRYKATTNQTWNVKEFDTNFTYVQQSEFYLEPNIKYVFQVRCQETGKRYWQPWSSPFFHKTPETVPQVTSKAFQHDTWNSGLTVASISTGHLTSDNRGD


Biological target: T1, human IL-23R
Experiment: BIAcore SPR, antibody immobilised
Procedure: BIAcore® label-free interaction analysis system determinations are performed essentially as described at Example 4 of U.S. Patent Application Publication No. 2007/0048315, which is hereby incorporated by reference. Briefly, ligands (anti-IL-23R mAbs) are immobilized on a BIAcore® label-free interaction analysis system CM5 sensor chip using standard amine-coupling procedure. Kinetic constants for the various interactions are determined using BIAevaluation software 3.1. The Kd is determined using the calculated dissociation and association rate constants.
Several sequence variants intended to increase the chemical stability of hu8B10-b were produced to evaluate their effects on binding affinity. Kd values are provided at Table 3. Binding to human IL-23R was determined using the BIAcore® label-free interaction analysis system (surface plasmon resonance), essentially as described in Example 4 (supra). Chimeric forms, designated as “chim,” refers to rat variable domains linked to human IgG1 heavy chain and human kappa light chain constant domains, e.g., as presented at SEQ ID NOs: 16 and 17, respectively, or as at SEQ ID NOs: 22 and 23, respectively. Sequences for heavy and light chain variable domains are provided at FIGS. 1 and 2, and in the Sequence Listing (as described at Table 4). Antibodies incorporate the sequence changes recited in the table (“Variant(s)”) for the respective heavy and light chains. Data arc presented as mean±standard deviation for multiple determinations, and without error estimates for single determinations.

Row | Binder | Kd | binding result
1 | humanized anti-human IL-23R antibody hu8B10-b (antibody, V domains shown) VH: QVQLVESGGGVVQPGRSLRLSCAASGFDFNSYGMSWVRQAPGKGLDLVADINSKSYNYATYYADSVKDRFTISRDNSKNTLYLQMNSLRAEDTAVYYCAVHHSDYFEYWGQGTLVTVSS VL: DIQMTQSPSSLSASVGDRVTITCRASQDIYTNLAWYQQKPGKAPKLLIYHASSLQDGVPSRFSGSGSGTDYTLTISSLQPEDFATYYCLQDSEYPPTFGQGTKVEIKR | 0.154 nM | –
2 | hu8B10-b variant, VH N52D (antibody, V domains shown, also called VH: 8B10-b N52D / VL: 8B10-b) VH: QVQLVESGGGVVQPGRSLRLSCAASGFDFNSYGMSWVRQAPGKGLDLVADIDSKSYNYATYYADSVKDRFTISRDNSKNTLYLQMNSLRAEDTAVYYCAVHHSDYFEYWGQGTLVTVSS VL: DIQMTQSPSSLSASVGDRVTITCRASQDIYTNLAWYQQKPGKAPKLLIYHASSLQDGVPSRFSGSGSGTDYTLTISSLQPEDFATYYCLQDSEYPPTFGQGTKVEIKR | – | no binding
3 | hu8B10-b variant, VL N32S (antibody, V domains shown, also called VH: 8B10-b / VL: 8B10-b N32S) VH: QVQLVESGGGVVQPGRSLRLSCAASGFDFNSYGMSWVRQAPGKGLDLVADINSKSYNYATYYADSVKDRFTISRDNSKNTLYLQMNSLRAEDTAVYYCAVHHSDYFEYWGQGTLVTVSS VL: DIQMTQSPSSLSASVGDRVTITCRASQDIYTSLAWYQQKPGKAPKLLIYHASSLQDGVPSRFSGSGSGTDYTLTISSLQPEDFATYYCLQDSEYPPTFGQGTKVEIKR | 19.2 nM | –
4 | hu8B10-b variant, VL D56S (antibody, V domains shown, also called VH: 8B10-b / VL: 8B10-b D56S) VH: QVQLVESGGGVVQPGRSLRLSCAASGFDFNSYGMSWVRQAPGKGLDLVADINSKSYNYATYYADSVKDRFTISRDNSKNTLYLQMNSLRAEDTAVYYCAVHHSDYFEYWGQGTLVTVSS VL: DIQMTQSPSSLSASVGDRVTITCRASQDIYTNLAWYQQKPGKAPKLLIYHASSLQSGVPSRFSGSGSGTDYTLTISSLQPEDFATYYCLQDSEYPPTFGQGTKVEIKR | 0.187 nM | –
5 | hu8B10-b variant, VH N30D (antibody, V domains shown, also called VH: 8B10-b N30D / VL: 8B10-b) VH: QVQLVESGGGVVQPGRSLRLSCAASGFDFDSYGMSWVRQAPGKGLDLVADINSKSYNYATYYADSVKDRFTISRDNSKNTLYLQMNSLRAEDTAVYYCAVHHSDYFEYWGQGTLVTVSS VL: DIQMTQSPSSLSASVGDRVTITCRASQDIYTNLAWYQQKPGKAPKLLIYHASSLQDGVPSRFSGSGSGTDYTLTISSLQPEDFATYYCLQDSEYPPTFGQGTKVEIKR | 0.114 nM | –
6 | humanized anti-human IL-23R antibody hu8B10-c (antibody, V domains shown, 8B10-b with VL D56S and VH N30S) VH: QVQLVESGGGVVQPGRSLRLSCAASGFDFSSYGMSWVRQAPGKGLDLVADINSKSYNYATYYADSVKDRFTISRDNSKNTLYLQMNSLRAEDTAVYYCAVHHSDYFEYWGQGTLVTVSS VL: DIQMTQSPSSLSASVGDRVTITCRASQDIYTNLAWYQQKPGKAPKLLIYHASSLQSGVPSRFSGSGSGTDYTLTISSLQPEDFATYYCLQDSEYPPTFGQGTKVEIKR | 0.18 nM | –
7 | hu8B10-b variant, VL D56E (antibody, V domains shown, also called VH: 8B10-b / VL: 8B10-b D56E) VH: QVQLVESGGGVVQPGRSLRLSCAASGFDFNSYGMSWVRQAPGKGLDLVADINSKSYNYATYYADSVKDRFTISRDNSKNTLYLQMNSLRAEDTAVYYCAVHHSDYFEYWGQGTLVTVSS VL: DIQMTQSPSSLSASVGDRVTITCRASQDIYTNLAWYQQKPGKAPKLLIYHASSLQEGVPSRFSGSGSGTDYTLTISSLQPEDFATYYCLQDSEYPPTFGQGTKVEIKR | 0.179 nM | –
8 | hu8B10-b variant, VH N57D (antibody, V domains shown, also called VH: 8B10-b N57D / VL: 8B10-b) VH: QVQLVESGGGVVQPGRSLRLSCAASGFDFNSYGMSWVRQAPGKGLDLVADINSKSYDYATYYADSVKDRFTISRDNSKNTLYLQMNSLRAEDTAVYYCAVHHSDYFEYWGQGTLVTVSS VL: DIQMTQSPSSLSASVGDRVTITCRASQDIYTNLAWYQQKPGKAPKLLIYHASSLQDGVPSRFSGSGSGTDYTLTISSLQPEDFATYYCLQDSEYPPTFGQGTKVEIKR | 0.22 nM | –
9 | hu8B10-b variant, VH N57S (antibody, V domains shown, also called VH: 8B10-b N57S / VL: 8B10-b) VH: QVQLVESGGGVVQPGRSLRLSCAASGFDFNSYGMSWVRQAPGKGLDLVADINSKSYSYATYYADSVKDRFTISRDNSKNTLYLQMNSLRAEDTAVYYCAVHHSDYFEYWGQGTLVTVSS VL: DIQMTQSPSSLSASVGDRVTITCRASQDIYTNLAWYQQKPGKAPKLLIYHASSLQDGVPSRFSGSGSGTDYTLTISSLQPEDFATYYCLQDSEYPPTFGQGTKVEIKR | 0.382 nM | –
10 | antibody with hu8B10 VH and hu8B10 VL N31T (antibody, V domains shown, also called VH: hu8B10 / VL: hu8B10 N31T) VH: QVQLVESGGGVVQPGRSLRLSCAASGFDFNSYGMSWVRQAPGKGLEWVADINSKSYNYATYYADSVKDRFTISRDNSKNTLYLQMNSLRAEDTAVYYCARHHSDYFEYWGQGTLVTVSS VL: DIQMTQSPSSLSASVGDRVTITCLASEDIYTNLAWYQQKPGKAPKLLIYHASSLQDGVPSRFSGSGSGTDFTLTISSLQPEDFATYYCLQDSEYPPTFGQGTKVEIKR | – | no binding
11 | hu8B10-b variant, VH N30S (antibody, V domains shown, also called VH: 8B10-b N30S / VL: 8B10-b) VH: QVQLVESGGGVVQPGRSLRLSCAASGFDFSSYGMSWVRQAPGKGLDLVADINSKSYNYATYYADSVKDRFTISRDNSKNTLYLQMNSLRAEDTAVYYCAVHHSDYFEYWGQGTLVTVSS VL: DIQMTQSPSSLSASVGDRVTITCRASQDIYTNLAWYQQKPGKAPKLLIYHASSLQDGVPSRFSGSGSGTDYTLTISSLQPEDFATYYCLQDSEYPPTFGQGTKVEIKR | 0.168 nM | –
12 | hu8B10-b variant, VH N52S (antibody, V domains shown, also called VH: 8B10-b N52S / VL: 8B10-b) VH: QVQLVESGGGVVQPGRSLRLSCAASGFDFNSYGMSWVRQAPGKGLDLVADISSKSYNYATYYADSVKDRFTISRDNSKNTLYLQMNSLRAEDTAVYYCAVHHSDYFEYWGQGTLVTVSS VL: DIQMTQSPSSLSASVGDRVTITCRASQDIYTNLAWYQQKPGKAPKLLIYHASSLQDGVPSRFSGSGSGTDYTLTISSLQPEDFATYYCLQDSEYPPTFGQGTKVEIKR | 0.444 nM | –
13 | antibody with hu8B10-b VH and hu8B10 VL N31T (antibody, V domains shown, also called VH: hu8B10-b / VL: hu8B10 N31T) VH: QVQLVESGGGVVQPGRSLRLSCAASGFDFNSYGMSWVRQAPGKGLDLVADINSKSYNYATYYADSVKDRFTISRDNSKNTLYLQMNSLRAEDTAVYYCAVHHSDYFEYWGQGTLVTVSS VL: DIQMTQSPSSLSASVGDRVTITCLASEDIYTNLAWYQQKPGKAPKLLIYHASSLQDGVPSRFSGSGSGTDFTLTISSLQPEDFATYYCLQDSEYPPTFGQGTKVEIKR | 5.38 nM | –

Biological target: T2, biotinylated huIL-23R-IgG
Experiment: ECL binding assay, Binding (% of w.t.)
Source text: The N31T change was introduced as a result of affinity maturation experiments, as follows. An E. coli expression vector for expression into the periplasmic space was constructed encoding a chimeric Fab fragment of rat antibody 8B10 comprising rat variable domains, a human constant light chain domain (CL) and a human constant heavy chain domain CH1. Mutations were introduced using a QuikChange® site directed mutagenesis kit (Stratagene Inc., LaJolla, Calif., USA). Primers were designed to replace selected positions with either alanine, or by all 20 amino acids, using the NNK codon approach (N includes an equimolar mix of A/G/C/T and K includes only G/T). To reduce background, alanine mutants at each position were used as the template for the randomization step. Unpurified periplasmic extracts were then tested for human IL-23R binding activity using an electrochemiluminescence assay with biotinylated huIL-23R-IgG and goat anti-huFab-Ori-Tag for detection. The area under the curve was used to compare the binding activity of sequence variants to the original parental 8B10 Fab. Data were fitted using GraphPad Prism® 3.0 software (Graphpad Software inc., San Diego, Calif. USA).

Row | Binder | binding result
14 | chimeric 8B10 Fab, VL Y94A (Fab, V domains shown, Rat V domains with human CH1 and CL; E. coli periplasmic extract) VH: EVKLVESGGGLEQPKGSLKLSCTVSGFDFNSYGMSWVRQAPGKGLDLVADINSKSYNYATYYADSVKDRFTISRDDSQSMVYLEMDNLKTEDTALYYCTVHHSDYFEYWGQGVMVTVSS VL: DIQMTQSPASLSASLGETVSIECLASEDIYNNLAWYQQKPGKSPQLLIYHASSLQDGVPSRFSGSGSGTQYSLKINSLESEDAATYFCLQDSEAPPTFGGGTKLELKR | no binding
15 | chimeric 8B10 Fab, VL N31del (Fab, V domains shown, Rat V domains with human CH1 and CL; E. coli periplasmic extract) VH: EVKLVESGGGLEQPKGSLKLSCTVSGFDFNSYGMSWVRQAPGKGLDLVADINSKSYNYATYYADSVKDRFTISRDDSQSMVYLEMDNLKTEDTALYYCTVHHSDYFEYWGQGVMVTVSS VL: DIQMTQSPASLSASLGETVSIECLASEDIYNLAWYQQKPGKSPQLLIYHASSLQDGVPSRFSGSGSGTQYSLKINSLESEDAATYFCLQDSEYPPTFGGGTKLELK | no binding
